Measured values from PMC3726324, “Characterization of the PAS domain in the sensor-kinase BvgS: mechanical role in signal transmission” (BMC Microbiology, 2013).

Assays:
[1] = target: recombinant PASBvg protein N2C3 (BvgS residues 573-720) (Bordetella pertussis) (UniProt P16575); experiment: SEC; size-exclusion chromatography of the purified recombinant proteins; data not shown
[2] = target: recombinant PASBvg protein N2C3 (BvgS residues 573-720) (Bordetella pertussis) (UniProt P16575); experiment: native MS; ESI-Q-TOF, positive ion mode, native conditions; purified N2C3 at 10 uM in 27 mM ammonium acetate
[3] = target: recombinant PASBvg protein N3C2 (BvgS residues 581-714) (Bordetella pertussis) (UniProt P16575); experiment: SEC; size-exclusion chromatography of the purified recombinant proteins; data not shown
[4] = target: recombinant PASBvg protein N2C2 (BvgS residues 573-714) (Bordetella pertussis) (UniProt P16575); experiment: as above
[5] = target: recombinant PASBvg protein N3C3 (BvgS residues 581-720) (Bordetella pertussis) (UniProt P16575); experiment: as above
[6] = target: the molecule itself; experiment: not stated; oligomeric state of the purified or soluble N2C3 variants; method not named; not shown

Chain of recombinant PASBvg protein N2C3 (BvgS residues 573-720) (P16575 573-720): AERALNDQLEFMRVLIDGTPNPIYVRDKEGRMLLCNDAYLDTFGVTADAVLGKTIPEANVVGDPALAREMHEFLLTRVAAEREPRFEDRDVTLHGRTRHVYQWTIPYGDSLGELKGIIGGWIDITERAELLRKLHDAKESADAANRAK
Chain of recombinant PASBvg protein N3C2 (BvgS residues 581-714) (P16575 581-714): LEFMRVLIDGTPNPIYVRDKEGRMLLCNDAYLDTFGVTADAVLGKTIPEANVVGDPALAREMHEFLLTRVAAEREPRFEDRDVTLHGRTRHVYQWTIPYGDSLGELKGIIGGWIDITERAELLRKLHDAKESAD
Chain of recombinant PASBvg protein N3C3 (BvgS residues 581-720) (P16575 581-720): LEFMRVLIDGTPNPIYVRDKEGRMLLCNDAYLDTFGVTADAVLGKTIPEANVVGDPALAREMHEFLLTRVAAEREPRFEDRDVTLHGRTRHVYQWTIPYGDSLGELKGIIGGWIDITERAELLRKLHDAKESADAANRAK
Chain of recombinant PASBvg protein N2C2 (BvgS residues 573-714) (P16575 573-714): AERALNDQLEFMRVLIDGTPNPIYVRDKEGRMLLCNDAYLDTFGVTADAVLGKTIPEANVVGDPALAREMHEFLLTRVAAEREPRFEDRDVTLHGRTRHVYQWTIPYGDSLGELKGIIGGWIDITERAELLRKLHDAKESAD

| Molecule | stoichiometry N [6] | further results |
| --- | --- | --- |
| recombinant PASBvg protein N2C3 (BvgS residues 573-720) (from UniProt P16575 573-720) (domain or fragment) | – | stoichiometry N [1]: 2; stoichiometry N [2]: 2 |
| recombinant PASBvg protein N3C2 (BvgS residues 581-714) (from UniProt P16575 581-714) (domain or fragment) | – | stoichiometry N [3]: 2 |
| recombinant PASBvg protein N2C2 (BvgS residues 573-714) (from UniProt P16575 573-714) (domain or fragment) | – | stoichiometry N [4]: 2 |
| recombinant PASBvg protein N3C3 (BvgS residues 581-720) (from UniProt P16575 581-720) (domain or fragment) | – | stoichiometry N [5]: 2 |
| N2C3 Asn608Ala (BvgS residues 573-720, N608A) (domain or fragment, numbering from the initiation Met of full-length BvgS; source: E. coli BL21 (DE3), pASK-IBA35+, soluble fraction; produced in very low amounts) AERALNDQLEFMRVLIDGTPNPIYVRDKEGRMLLCADAYLDTFGVTADAVLGKTIPEANVVGDPALAREMHEFLLTRVAAEREPRFEDRDVTLHGRTRHVYQWTIPYGDSLGELKGIIGGWIDITERAELLRELHDAKESADAANRAK | 2 | – |
| N2C3 Asn608Ser (BvgS residues 573-720, N608S) (domain or fragment, numbering from the initiation Met of full-length BvgS; source: E. coli BL21 (DE3), pASK-IBA35+, purified) AERALNDQLEFMRVLIDGTPNPIYVRDKEGRMLLCSDAYLDTFGVTADAVLGKTIPEANVVGDPALAREMHEFLLTRVAAEREPRFEDRDVTLHGRTRHVYQWTIPYGDSLGELKGIIGGWIDITERAELLRELHDAKESADAANRAK | 2 | – |
| N2C3 His643Ala (BvgS residues 573-720, H643A) (domain or fragment, numbering from the initiation Met of full-length BvgS; source: E. coli BL21 (DE3), pASK-IBA35+, purified) AERALNDQLEFMRVLIDGTPNPIYVRDKEGRMLLCNDAYLDTFGVTADAVLGKTIPEANVVGDPALAREMAEFLLTRVAAEREPRFEDRDVTLHGRTRHVYQWTIPYGDSLGELKGIIGGWIDITERAELLRELHDAKESADAANRAK | 2 | – |
| N2C3 Arg670Ala (BvgS residues 573-720, R670A) (domain or fragment, numbering from the initiation Met of full-length BvgS; source: E. coli BL21 (DE3), pASK-IBA35+, purified) AERALNDQLEFMRVLIDGTPNPIYVRDKEGRMLLCNDAYLDTFGVTADAVLGKTIPEANVVGDPALAREMHEFLLTRVAAEREPRFEDRDVTLHGRTAHVYQWTIPYGDSLGELKGIIGGWIDITERAELLRELHDAKESADAANRAK | 2 | – |
| N2C3 Asp695Ala (BvgS residues 573-720, D695A) (domain or fragment, numbering from the initiation Met of full-length BvgS; source: E. coli BL21 (DE3), pASK-IBA35+, purified) AERALNDQLEFMRVLIDGTPNPIYVRDKEGRMLLCNDAYLDTFGVTADAVLGKTIPEANVVGDPALAREMHEFLLTRVAAEREPRFEDRDVTLHGRTRHVYQWTIPYGDSLGELKGIIGGWIAITERAELLRELHDAKESADAANRAK | 2 | – |
| N2C3 Cys607Ala (BvgS residues 573-720, C607A) (domain or fragment, numbering from the initiation Met of full-length BvgS; source: E. coli BL21 (DE3), pASK-IBA35+, purified) AERALNDQLEFMRVLIDGTPNPIYVRDKEGRMLLANDAYLDTFGVTADAVLGKTIPEANVVGDPALAREMHEFLLTRVAAEREPRFEDRDVTLHGRTRHVYQWTIPYGDSLGELKGIIGGWIDITERAELLRELHDAKESADAANRAK | 2 | – |
| N2C3 Tyr596Ala + Asn631Ala (BvgS residues 573-720, Y596A + N631A) (domain or fragment, numbering from the initiation Met of full-length BvgS; source: E. coli BL21 (DE3), pASK-IBA35+, purified) AERALNDQLEFMRVLIDGTPNPIAVRDKEGRMLLCNDAYLDTFGVTADAVLGKTIPEAAVVGDPALAREMHEFLLTRVAAEREPRFEDRDVTLHGRTRHVYQWTIPYGDSLGELKGIIGGWIDITERAELLRELHDAKESADAANRAK | 2 | – |
